According to patent publication US20130273029A1 (Novartis, published 2013):
Where a chain is given by its changes, count along the chain named. Like-named read-outs stand apart in the source and are kept apart here.

B1: MOR12616 (antibody, human IgG1, kappa, V domains shown)
VH: QVQLVQSGAEVKKPGESLKISCKGSGYSFTNSWVAWVRQMPGKGLEWMGIIYPGNSDTIYSPSFQGQVTISADKSISTAYLQWSSLKASDTAMYYCARVHIIQPPSAWSYNAMDVWGQGTLVTVSS
VL: DIQMTQSPSSLSASVGDRVTITCRASQSISTYLNWYQQKPGKAPKLLIFGASNLQSGVPSRFSGSGSGTDFTLTISSLQPEDFATYYCQQSITELFTFGQGTKVEIKR
notes: tested as IgG
B2: MOR12925 (antibody, human IgG1, kappa, V domains shown)
VH: B1 VH with T30S, S32Y, V34I
VL: B1 VL
notes: tested as IgG
B3: MOR13768 (antibody, human IgG1, kappa, V domains shown)
VH: B1 VH with N31S, N55Q
VL: B1 VL
notes: tested as IgG

Key:
[1] = molecular target: T1, Human HER3, endogenous, on human cancer cell lines (SK-Br-3, MCF7, BT-474) (human, UniProt P21860 20-1342); assay: cell-based or functional assay
[2] = molecular target: T2, Hu HER3: CD33-[Human HER3, residues 20-640]-TAG (human, UniProt P21860 20-640); assay: binding ELISA on human HER3 (WT), IgG titrated (Example 7); fluorescence 435/530 nm
T2 construct: also called hu HER3-Tag; HER3-Tag; not shown: C-terminal TAG (e.g., FLAG TAG)

[3] = molecular target: T1, Human HER3, endogenous, on human cancer …; assay: cell-based or functional assay; remark: listed apart in the source
[4] = molecular target: T3, Cyno HER3: CD33-[Cyno HER3, residues 20-643]-TAG (cynomolgus, UniProt G7PIG5 20-643); assay: SET, IgG vs soluble HER3-Tag
T3 construct: also called cy HER3-Tag; not shown: C-terminal TAG (e.g., FLAG TAG)
Description: (§1) Affinity determination in solution was essentially performed as previously described (Friguet et al., (1985) J Immunol Methods 77:305-19). In order to improve the sensitivity and accuracy of the SET method, it was transferred from classical ELISA to ECL based technology (Haenel et al., (2005) Anal Biochem 339:182-84).
(§2) The data was evaluated with XLfit software (ID Business Solutions) applying customized fitting models.
(§3) Antibody affinity was determined by solution equilibrium titration (SET) as described above. The results are summarized in Table 3 and example titration curves for MOR12616 and MOR12925 are contained in FIG. 1.

[5] = molecular target: T4, Mu HER3: CD33-[Murine HER3, residues 20-643]-TAG (murine, UniProt Q61526 20-643); assay: SET, IgG vs soluble HER3-Tag
T4 construct: also called mu HER3-Tag; not shown: C-terminal TAG (e.g., FLAG TAG)
Description: as §1, §2, §3

[6] = molecular target: T2, Hu HER3: CD33-[Human HER3, residues …; assay: SET, IgG vs soluble HER3-Tag
Description: as §1, §2, §3

[7] = molecular target: T5, Rat HER3: CD33-[Rat HER3, residues 20-643]-TAG (rat, UniProt Q62799 20-643); assay: SET, IgG vs soluble HER3-Tag
T5 construct: also called ra HER3-Tag; not shown: C-terminal TAG (e.g., FLAG TAG)
Description: as §1, §2, §3

[8] = molecular target: T6, HER3 D3-4: CD33-[Human HER3, residues 330-643]-TAG (human, UniProt P21860 330-643); assay: ELISA on coated recombinant protein, antibody titrated (Example 7); readout on the sheet is Fluorescence Units
T6 construct: also called D3-4-Tag; isolated domains 3-4; not shown: C-terminal TAG (e.g., FLAG TAG)

[9] = molecular target: T7, HER3 D2: CD33-[Human HER3, residues 185-329]-TAG (human, UniProt P21860 185-329); assay: as above
T7 construct: also called D2-Tag; isolated D2 protein; not shown: C-terminal TAG (e.g., FLAG TAG)

[10] = molecular target: T8, HER3 D4: CD33-[Human HER3, residues 496-643]-TAG (human, UniProt P21860 496-643); assay: as above
T8 construct: also called D4-Tag; isolated domain 4; not shown: C-terminal TAG (e.g., FLAG TAG)

[11] = molecular target: T1, Human HER3, endogenous, on human cancer …; assay: cell-based or functional assay; remark: listed apart in the source
[12] = molecular target: T6, HER3 D3-4: CD33-[Human HER3, residues …; assay: ELISA on coated recombinant protein, antibody titrated (Example 7); readout on the sheet is Fluorescence Units; remark: listed apart in the source
[13] = molecular target: T7, HER3 D2: CD33-[Human HER3, residues …; assay: as above; remark: listed apart in the source
[14] = molecular target: T8, HER3 D4: CD33-[Human HER3, residues …; assay: as above; remark: listed apart in the source
[15] = molecular target: T9, HER3 K267A: CD33-[Human HER3, residues 20-640, K267A]-TAG (human, UniProt P21860 20-640); assay: SET, IgG vs mutant HER3
T9 construct: also called HER3 K267A-Tag; not shown: C-terminal TAG (e.g., FLAG TAG)

[16] = molecular target: T10, HER3 L268A: CD33-[Human HER3, residues 20-640, L268A]-TAG (human, UniProt P21860 20-640); assay: SET
T10 construct: also called HER3 L268A-Tag; human mutant HER3 (L268A); not shown: C-terminal TAG (e.g., FLAG TAG)

[17] = molecular target: T11, HER3 K267A/L268A: CD33-[Human HER3, residues 20-640, K267A/L268A]-TAG (human, UniProt P21860 20-640); assay: SET
T11 construct: not shown: C-terminal TAG (e.g., FLAG TAG)

[18] = molecular target: T2, Hu HER3: CD33-[Human HER3, residues …; assay: SET, IgG vs HER3 ECD
Description: as §1, §2, §3

T1 sequence (P21860 20-1342): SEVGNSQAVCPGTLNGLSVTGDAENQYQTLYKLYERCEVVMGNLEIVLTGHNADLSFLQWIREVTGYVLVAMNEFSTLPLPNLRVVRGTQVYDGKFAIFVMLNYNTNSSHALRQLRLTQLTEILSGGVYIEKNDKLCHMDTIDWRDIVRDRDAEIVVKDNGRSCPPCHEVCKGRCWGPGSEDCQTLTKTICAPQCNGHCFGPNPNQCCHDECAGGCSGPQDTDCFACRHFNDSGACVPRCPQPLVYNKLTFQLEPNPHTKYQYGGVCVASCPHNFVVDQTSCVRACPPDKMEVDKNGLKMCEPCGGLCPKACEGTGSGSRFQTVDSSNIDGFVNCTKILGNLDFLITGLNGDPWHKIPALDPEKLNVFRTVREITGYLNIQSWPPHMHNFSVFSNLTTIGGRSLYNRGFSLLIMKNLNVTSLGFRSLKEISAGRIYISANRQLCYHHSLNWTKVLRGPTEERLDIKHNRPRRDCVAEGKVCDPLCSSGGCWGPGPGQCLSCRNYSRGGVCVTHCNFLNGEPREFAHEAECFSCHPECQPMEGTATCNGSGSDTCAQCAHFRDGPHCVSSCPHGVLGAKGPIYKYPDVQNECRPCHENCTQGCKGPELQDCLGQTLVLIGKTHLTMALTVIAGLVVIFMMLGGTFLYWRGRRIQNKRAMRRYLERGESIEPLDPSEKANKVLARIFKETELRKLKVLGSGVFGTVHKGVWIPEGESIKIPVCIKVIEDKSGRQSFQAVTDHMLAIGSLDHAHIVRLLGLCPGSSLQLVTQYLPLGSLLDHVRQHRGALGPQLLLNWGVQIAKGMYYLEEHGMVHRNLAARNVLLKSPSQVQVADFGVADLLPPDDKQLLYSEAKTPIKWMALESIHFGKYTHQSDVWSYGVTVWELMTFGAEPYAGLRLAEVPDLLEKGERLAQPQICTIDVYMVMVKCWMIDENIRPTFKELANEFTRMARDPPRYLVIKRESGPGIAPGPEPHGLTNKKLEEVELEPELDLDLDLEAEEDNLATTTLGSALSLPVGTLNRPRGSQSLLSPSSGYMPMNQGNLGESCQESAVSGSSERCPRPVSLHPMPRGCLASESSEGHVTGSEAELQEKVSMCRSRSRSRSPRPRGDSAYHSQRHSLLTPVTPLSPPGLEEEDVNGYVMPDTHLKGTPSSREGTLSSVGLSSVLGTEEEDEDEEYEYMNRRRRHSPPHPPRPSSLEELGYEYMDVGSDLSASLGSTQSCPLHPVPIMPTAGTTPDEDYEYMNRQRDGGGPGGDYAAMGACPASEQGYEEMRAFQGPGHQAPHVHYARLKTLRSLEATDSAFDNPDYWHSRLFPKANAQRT
T2 sequence (P21860 20-640): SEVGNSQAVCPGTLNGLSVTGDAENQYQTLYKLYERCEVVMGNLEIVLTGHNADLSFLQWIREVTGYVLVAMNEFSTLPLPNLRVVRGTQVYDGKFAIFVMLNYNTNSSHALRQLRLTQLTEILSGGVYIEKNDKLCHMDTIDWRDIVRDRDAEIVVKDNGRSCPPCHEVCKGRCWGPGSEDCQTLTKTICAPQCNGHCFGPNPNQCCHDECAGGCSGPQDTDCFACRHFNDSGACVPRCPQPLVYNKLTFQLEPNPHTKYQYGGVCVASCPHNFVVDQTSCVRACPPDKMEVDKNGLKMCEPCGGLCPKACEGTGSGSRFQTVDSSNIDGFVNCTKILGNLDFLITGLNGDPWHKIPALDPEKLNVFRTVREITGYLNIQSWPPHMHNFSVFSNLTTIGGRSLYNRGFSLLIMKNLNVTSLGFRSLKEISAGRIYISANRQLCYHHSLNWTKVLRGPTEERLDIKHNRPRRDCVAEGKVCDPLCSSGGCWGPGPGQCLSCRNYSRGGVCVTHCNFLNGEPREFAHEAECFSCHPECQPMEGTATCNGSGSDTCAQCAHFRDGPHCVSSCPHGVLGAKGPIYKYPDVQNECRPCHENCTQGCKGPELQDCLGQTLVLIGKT
T3 sequence (G7PIG5 entry or part of it): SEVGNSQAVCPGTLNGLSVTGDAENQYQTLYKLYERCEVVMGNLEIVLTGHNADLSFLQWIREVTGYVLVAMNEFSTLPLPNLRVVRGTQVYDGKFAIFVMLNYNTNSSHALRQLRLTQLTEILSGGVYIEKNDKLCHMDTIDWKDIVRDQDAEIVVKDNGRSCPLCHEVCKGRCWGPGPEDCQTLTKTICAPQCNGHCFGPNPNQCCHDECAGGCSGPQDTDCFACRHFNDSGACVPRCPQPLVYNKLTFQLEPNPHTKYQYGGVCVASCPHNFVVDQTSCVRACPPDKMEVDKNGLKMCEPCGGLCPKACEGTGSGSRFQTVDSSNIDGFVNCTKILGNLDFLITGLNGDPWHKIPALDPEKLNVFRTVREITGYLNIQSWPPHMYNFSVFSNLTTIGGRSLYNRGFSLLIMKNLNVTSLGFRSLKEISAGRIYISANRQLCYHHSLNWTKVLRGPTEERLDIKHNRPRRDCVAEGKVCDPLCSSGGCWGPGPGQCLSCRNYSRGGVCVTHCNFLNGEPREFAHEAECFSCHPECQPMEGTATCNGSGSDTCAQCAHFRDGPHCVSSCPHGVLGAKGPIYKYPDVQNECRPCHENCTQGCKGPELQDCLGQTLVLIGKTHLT
T7 sequence (P21860 185-329): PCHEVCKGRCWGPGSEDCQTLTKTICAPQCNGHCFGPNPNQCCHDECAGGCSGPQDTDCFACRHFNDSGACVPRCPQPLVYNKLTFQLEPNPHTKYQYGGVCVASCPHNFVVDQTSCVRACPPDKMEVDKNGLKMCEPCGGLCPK
T5 sequence (Q62799 20-643): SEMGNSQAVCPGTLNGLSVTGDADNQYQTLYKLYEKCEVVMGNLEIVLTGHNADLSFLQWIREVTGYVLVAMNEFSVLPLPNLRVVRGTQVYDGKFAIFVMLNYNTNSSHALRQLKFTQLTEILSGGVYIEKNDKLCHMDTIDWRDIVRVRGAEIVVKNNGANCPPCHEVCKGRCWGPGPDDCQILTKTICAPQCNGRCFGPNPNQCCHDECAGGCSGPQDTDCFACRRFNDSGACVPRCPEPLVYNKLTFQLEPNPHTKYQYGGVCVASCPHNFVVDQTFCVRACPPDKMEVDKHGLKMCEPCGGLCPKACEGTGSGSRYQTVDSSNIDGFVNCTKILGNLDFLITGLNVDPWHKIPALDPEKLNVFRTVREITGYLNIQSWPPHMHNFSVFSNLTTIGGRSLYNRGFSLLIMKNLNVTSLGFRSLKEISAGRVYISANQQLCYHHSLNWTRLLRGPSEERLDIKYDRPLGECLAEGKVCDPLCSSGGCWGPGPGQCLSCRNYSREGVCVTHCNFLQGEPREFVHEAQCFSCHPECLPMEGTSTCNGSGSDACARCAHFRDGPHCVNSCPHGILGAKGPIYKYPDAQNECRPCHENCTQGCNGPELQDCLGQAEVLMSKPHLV
T4 sequence (Q61526 20-643): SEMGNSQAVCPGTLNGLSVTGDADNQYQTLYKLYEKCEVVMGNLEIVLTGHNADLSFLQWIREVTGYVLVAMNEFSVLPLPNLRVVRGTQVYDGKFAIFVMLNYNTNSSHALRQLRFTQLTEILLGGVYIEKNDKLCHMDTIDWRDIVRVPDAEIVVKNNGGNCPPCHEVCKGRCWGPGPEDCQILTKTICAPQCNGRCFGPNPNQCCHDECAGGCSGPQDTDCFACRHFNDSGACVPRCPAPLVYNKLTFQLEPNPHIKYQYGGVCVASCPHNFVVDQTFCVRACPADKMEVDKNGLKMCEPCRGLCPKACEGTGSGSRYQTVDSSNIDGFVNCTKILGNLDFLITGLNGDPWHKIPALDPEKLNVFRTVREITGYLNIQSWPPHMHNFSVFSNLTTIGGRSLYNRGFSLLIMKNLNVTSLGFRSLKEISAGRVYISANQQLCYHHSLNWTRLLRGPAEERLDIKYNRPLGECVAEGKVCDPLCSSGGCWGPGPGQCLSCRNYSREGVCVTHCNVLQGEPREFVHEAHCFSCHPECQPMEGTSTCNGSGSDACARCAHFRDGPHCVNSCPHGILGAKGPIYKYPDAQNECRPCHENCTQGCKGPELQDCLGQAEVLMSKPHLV
T6 sequence (P21860 330-643): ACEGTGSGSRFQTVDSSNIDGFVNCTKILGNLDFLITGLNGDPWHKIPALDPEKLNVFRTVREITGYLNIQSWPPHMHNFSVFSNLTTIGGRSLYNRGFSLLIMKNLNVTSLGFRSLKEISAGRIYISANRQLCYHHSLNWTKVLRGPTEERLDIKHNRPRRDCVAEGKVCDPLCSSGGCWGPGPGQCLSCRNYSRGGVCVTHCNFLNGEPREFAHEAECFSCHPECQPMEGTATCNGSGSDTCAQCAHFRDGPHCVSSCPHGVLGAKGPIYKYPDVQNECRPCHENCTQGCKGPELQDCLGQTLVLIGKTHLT
T8 sequence (P21860 496-643): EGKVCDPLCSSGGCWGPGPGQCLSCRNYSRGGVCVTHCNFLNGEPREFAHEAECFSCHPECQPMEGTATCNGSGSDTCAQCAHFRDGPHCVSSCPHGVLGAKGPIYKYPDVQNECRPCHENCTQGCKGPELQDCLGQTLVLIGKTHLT
T10 sequence (P21860 20-640 L268A): as the sequence (P21860 20-640) above, with L249A counted along it
T11 sequence (P21860 20-640 K267A/L268A): as the sequence (P21860 20-640) above, with K248A, L249A counted along it
T9 sequence (P21860 20-640 K267A): as the sequence (P21860 20-640) above, with K248A counted along it

Binder	BT-474 pAkt (S473) % inhibition [1] [%]	BT-474 pAkt (S473) IC50 [1] [pM]	MCF7 pAkt (S473) % inhibition [1] [%]	MCF7 pAkt (S473) IC50 [1] [pM]	SK-Br-3 pAkt (S473) % inhibition [1] [%]	SK-Br-3 pAkt (S473) IC50 [1] [pM]	EC50 (read off the curve) [2] [nM]	BT474 pHER3 % inhibition [3] [%]	BT474 pHER3 IC50 [3] [pM]	MCF7 pHER3 % inhibition [3] [%]	MCF7 pHER3 IC50 [3] [pM]	SK-Br-3 pHER3 % inhibition [3] [%]	SK-Br-3 pHER3 IC50 [3] [pM]	Kd [4] [nM]	Kd [6] [nM]	BT-474 proliferation % inhibition [11] [%]	BT-474 proliferation IC50 [11] [nM]	MCF7 proliferation % inhibition [11] [%]	SK-Br-3 proliferation % inhibition [11] [%]	SK-Br-3 proliferation IC50 [11] [nM]	also measured
B1	78	316	80	442	89	88	~0.1	58	436	76	245	75	142	0.074	0.02	45	0.635	32	48	0.123	Kd [5]: 0.041 nM; Kd [7]: 0.122 nM; binding result [8]: no binding (tested: 10 µg/ml); EC50 (read off the curve) [9]: ~0.2 µg/mL; binding result [10]: no binding (tested: 10 µg/ml); MCF7 proliferation IC50 [11]: 0.415 nM
B2	80	255	82	295	88	93	~0.1	63	2160	81	327	75	136	0.074	0.028	47	0.522	47	40	0.101	binding result [12]: no binding (tested: 10 µg/ml); EC50 (read off the curve) [13]: ~0.1 µg/mL; binding result [14]: no binding (tested: 10 µg/ml); Kd [5]: 0.038 nM; Kd [7]: 0.1 nM; MCF7 proliferation IC50 [11]: 0.604 nM
B3	81	466	73	347	94	105		70	437	75	412	81	139		0.037	43	1.21	58	43	0.198	Kd [15]: 0.099 nM; binding result [16]: no binding; binding result [17]: no binding; Kd [18]: 0.037 nM
